The values that follow come from patent publication US6458552B1, “Metalloprotease peptide substrates and methods” (Ortho-McNeil Pharmaceutical, Inc., priority 2000, dated 2002).

For series [1], the system named is ADAM8. Description: ADAM8 protein expression in THP-1 cells (immunoblot). It counts as cell-based, human. Particulars: LPS 100 ng/ml 16 hours, IFN-γ 200U/ml 24 hours. The method, then:
Polyclonal antisera against ADAM8 and ADAM15 were generated by immunizing rabbits with KLH-conjugated peptides corresponding to the C-terminal sequences of ADAM8 and 15, respectively. The antisera were used to detect ADAM8 and ADAM15 in THP-1 cell lysates. THP-1 cells were treated with interferon(IFN)-γ (200U/ml) or bacterial lipopolysaccharide (LPS) (100 ng/ml), for 24 hours or 16 hours, respectively. The cells were then harvested, washed with PBS and lysed in PBS containing 1% NP-40 and Complete® protease inhibitors. The cell extracts were analyzed for expression of ADAM8 and ADAM15 by SDS-PAGE, transfer to nitrocellulose, and immunoblotting with the antisera to ADAM8 and ADAM15, respectively. […] The corresponding pre-immune sera gave no positive bands at these molecular weights for THP-1 cell extracts in similar assays.
In general terms: A western blot detects proteins with antibodies after separation by electrophoresis.

The target of series [2] is T1, AD8P FRET peptide X-RTAAVFRP-Z (not fully specified).
T1 chain: RTAAVFRP

In series [3] the target is T2, AD8P2 FRET peptide X-RVRRALPS-Z (not fully specified).
T2 chain: RVRRALPS

For series [4], the target named is T3, CD27L FRET peptide X-RFAQAQQQLP-Z (not fully specified).
T3 chain: RFAQAQQQLP

Series [5] concerns the target T4, CatE FRET peptide X-KPAAFFRL-Z (not fully specified).
T4 chain: KPAAFFRL

Series [6] has as its target T5, CatE1 FRET peptide X-KPAKFFRL-Z (not fully specified).
T5 chain: KPAKFFRL

For series [7], the target named is T6, KAS-1 FRET peptide Z-RGVVNASSRLAK-X (not fully specified).
T6 chain: RGVVNASSRLAK

The target in series [8] is T7, KL1 FRET peptide X-PPVAASSLRN-Z (not fully specified).
T7 chain: PPVAASSLRN

The target of series [9] is T8, Mat FRET peptide Z-RPLGLAR-X (not fully specified).
T8 chain: RPLGLAR

In series [10] the target is T9, TNFB2 FRET peptide X-PSAAQTARQHP-Z (not fully specified).
T9 chain: PSAAQTARQHP

In series [11] the target is T10, TNFα FRET peptide X-PLAQAVRSSS-Z (not fully specified).
T10 chain: PLAQAVRSSS

The target of series [12] is T11, TNFα(-4 + 6) FRET peptide Z-LAQAVRSSSR-X (not fully specified).
T11 chain: LAQAVRSSSR

Series [13] deals with membrane-bound CD23. Description: Cleavage of CD23 from the surface of U937 cells by ADAM enzymes (flow cytometry). The class given is cell-based, human. Conditions: U-937 cells, one hour at 37° C. The method, then: U-937 (ATCC CRL-1593.2), a monoblastoid cell line, were harvested, washed and resuspended in HEPES-buffered saline, pH 7.5. Then the cells were treated for one hour at 37° C. in the absence or presence of ADAM8, ADAM17, ADAM15 or MDC-L. As a further control, some cells were incubated in the presence of ADAM8, ADAM17, ADAM15 or MDC-L with the addition of Inhibitor C. Intact, membrane-bound CD23 was then detected by staining the cells with a FITC-conjugated anti-human CD23 antibody (Pharmingen) and detection by flow cytometry.

For IFN-γ: interferon-γ, the “Up-regulation of ADAM8 at the protein level” value in [1] is listed as “approximately ten-fold”.

B1: soluble recombinant human ADAM8, active (processed) form (protein)
chain: RYVELYVVVDNAEFQMLGSEAAVRHRVLEVVNHVDKLYQKLNFRVVLVGLEIWNSQDRFHVSPDPSVTLENLLTWQARQRTRRHLHDNVQLITGVDFTGTTVGFARVSAMCSHSSGAVNQDHSKNPVGVACTMAHEMGHNLGMDHDENVQGCRCQERFEAGRCIMAGSIGSSFPRMFSDCSQAYLESFLERPQSVCLANAP
Turning to B1, the Relative proteolytic activity result in [2] is on record as “*”; in series [3], “***”; in [4], “****”; in series [5], “*****”; in series [6] it was “*****”; in series [7], “***”. Also, the Relative proteolytic activity entry is given as “***” in series [8]; “***” in series [9]; “***” in [10]; “***” in [11]; “*” in series [12]. For the same molecule, the Hill coefficient entry in [4], in series [5], in series [6] and in series [11] was “allosteric kinetics with a Hill coefficient of approximately 3” each time. Further, the K0.5 (substrate concentration at which the enzyme activity was 50% of the Vmax) in series [4] is 5 µM; in [5], 5 µM; in [6], 2.5 µM; in series [11], 5 µM. In [6], the FRET peptide zymography entry is “lanes 2 and 3 contain active, processed, ADAM8 preparations”.

B2: soluble recombinant human MDC-L, active form (protein)
chain: VQEHEKYIEYYLVLDNGEFKRYNENQDEIRKRVFEMANYVNMLYKKLNTHVALVGMEIWTDKDKIKITPNASFTLENFSKWRGSVLSRRKRHDIAQLITATELAGTTVGLAFMSTMCSPYSVGVVQDHSDNLLRVAGTMAHEMGHNFGMFHDDYSCKCPSTICVMDKALSFYIPTDFSSCSRLSYDKFFEDKLSNCLFNAP
For the molecule B2, the Relative proteolytic activity entry in series [2] is given as “*”; in series [3], “***”; in [4], “****”; in [5] it was “*****”; in series [6] it was “*****”; in [7], “***”. Besides, the Relative proteolytic activity result is “***” in series [8]; “***” in series [9]; “***” in [10]; “***” in series [11]; “*” in series [12].

B3: MDC-L: recombinant soluble MDC-L: pro- and protease domains with C-terminal FLAG epitope (protein)
chain: B2 chain
modifications: left off: small tags and cut ends
In the case of B3, in series [13], the “Cleavage of membrane-bound CD23 from the cell surface” value is “similarly found to cleave membrane-bound CD23”.

B4: soluble recombinant human ADAM15, active form (protein)
chain: DVVTETKTVELVIVADHSEAQKYRDFQHLLNRTLEVALLLDTFFRPLNVRVALVGLEAWTQRDLVEISPNPAVTLENFLHWRRAHLLPRLPHDSAQLVTGTSFSGPTVGMAIQNSICSPDFSGGVNMDHSTSILGVASSIAHELGHSLGLDHDLPGNSCPCPGPAPAKTCIMEASTDFLPGLNFSNCSRRALEKALLDGMGSCLFERL
In the case of B4, the Relative proteolytic activity entry in [2] is reported as “*”; in series [3], “***”; in series [4], “****”; in [5] it was “*****”; in [6], “*****”; in [7], “***”. In addition, the Relative proteolytic activity result is given as “***” in series [8]; “***” in series [9]; “***” in [10]; “***” in [11]; “*” in series [12].

B5: recombinant ADAM17 (protein)
chain: RADPDPMKNTCKLLVVADHRFYRYMGRGEESTTTNYLIELIDRVDDIYRNTSWDNAGFKGYGIQIEQIRILKSPQEVKPGEKHYNMAKSYPNEEKDAWDVKMLLEQFSFDIAEEASKVCLAHLFTYQDFDMGTLGLAYVGSPRANSHGGVCPKAYYSPVGKKNIYLNSGLTSTKNYGKTILTKEADLVTTHELGHNFGAEHDPDGLAECAPNEDQGGKYVMYPIAVSGDHENNKMFSNCSKQSIYKTIESKAQECFQERSNKV
Consider B5, for which the Relative proteolytic activity entry is “*****” in series [2]; “(-)” in [3]; “(-)” in series [4]; “(-)” in series [5]; “(-)” in [6]; “(-)” in series [7]. Moreover, the Relative proteolytic activity entry is “(-)” in [8]; “***” in series [9]; “(-)” in series [10]; “***” in series [11]; “***” in [12]. In addition, the “Cleavage of membrane-bound CD23 from the cell surface” value in series [13] is “does not cleave CD 23”.
